Assay [1] addresses T1, ROR1 extracellular domain Fc-fusion, dimer (human, UniProt Q01973 30-406).
T1 construct: also called ROR1 dimer; hROR1 dimeric ECD-Fc fusion protein; not shown: Fc part
As to the kind of experiment: SPR, immobilised ROR1 dimer, antibody injected, 1:1 model. As for the experimental part: (§1) The binding affinities of ROR1 extracellular domain dimer and monomer for anti-ROR1 antibodies were determined by surface plasmon resonance (SPR). ROR1 extracellular domain Fc-fusion, “dimer,” and ROR1 extracellular domain Fc fusion:Fc heterodimer, “monomer,” are the dimer and monomeric forms of ROR1 used for affinity analysis, respectively. Briefly, ROR1 dimer and monomer were directly immobilized to a CM4 chip using an amine coupling kit and 100 mM ethylenediamine in 100 mM Sodium Borate buffer, pH 8.0 as the blocking reagent. Approximately 100-150 RU of ROR1 dimer and monomer were immobilized on separate flow cells and an un-derivatized flow cell was used as a reference control. […] Dissociation was followed for 180 seconds. The association constant, dissociation constant, and affinity of each anti-ROR1 antibody was calculated using the Biacore T200 Evaluation Software 1:1 binding model.
(§2) Sensorgrams were normalized to 100 RU using the “binding stability point” at the end of the association phase but before the dissociation phase.
Background: In SPR one partner is held on a chip, and binding of the other changes the refractive index at the surface.

Assay [2] concerns the target T2, ROR1 extracellular domain Fc fusion:Fc heterodimer, monomer (human).
T2 construct: Heterodimer of one ROR1 ECD-Fc chain and one Fc chain; also called ROR1 monomer; hROR1 monomeric ECD-Fc fusion protein; not shown: Fc part; Fc alone
As to the kind of experiment: SPR, immobilised ROR1 monomer, antibody injected, 1:1 model. On the procedure:
as §1, §2

Assay [3] has as its target T1, ROR1 extracellular domain Fc-fusion, …. Put plainly: SPR, immobilised ROR1 dimer, antibody injected, 1:1 model; apparent affinity. On the procedure:
as §1, §2

T2 sequence (Q01973 30-406, one chain of several): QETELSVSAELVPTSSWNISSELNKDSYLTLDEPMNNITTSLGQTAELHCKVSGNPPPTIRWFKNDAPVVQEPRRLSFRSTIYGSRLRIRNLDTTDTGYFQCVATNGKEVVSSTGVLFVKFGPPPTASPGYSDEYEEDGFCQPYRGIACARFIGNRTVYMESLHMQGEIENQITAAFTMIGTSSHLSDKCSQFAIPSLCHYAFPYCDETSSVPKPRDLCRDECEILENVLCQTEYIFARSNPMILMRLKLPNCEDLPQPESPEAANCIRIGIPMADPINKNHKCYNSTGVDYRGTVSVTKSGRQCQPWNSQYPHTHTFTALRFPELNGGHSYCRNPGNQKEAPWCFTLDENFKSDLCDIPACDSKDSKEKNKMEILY
T1 sequence (Q01973 30-406): as the sequence (Q01973 30-406, one chain of several) above

B1: Antibody 601-130 (antibody, V domains shown)
VH: EVQLVETGGGLVKPGGSLRLSCEASGFSLSSYSMNWVRQAPGKGLEWVSSISSSSTHIYYADSLKGRFTISRDNAKNSLFLQMDNLRAEDTAVYYCARATIGFDYWGQGTLVTVSS
VL: QSVLTQPPSVSGAPGQRVTISCTGSSSNIGAGYDVHWYQQLPGTAPKLLIYGNSNRPSGVPDRFSGSKSGTSASLAITGLQAEDEADYYCQSYDSSLSGYVFGTGTKLTVL
By koff is commonly meant the first-order rate constant of dissociation. A lower koff goes with a long-lived complex. Broadly, the kon is a measure of how fast the partners come together. Low values mean slow association, high ones fast association. With B1, the koff in assay [1] was determined as 0.0012 s⁻¹; in assay [2], 0.0018 s⁻¹. Further, the results for the kon in assay [1] and in assay [2] were 520000 M⁻¹ s⁻¹ and 450000 M⁻¹ s⁻¹, respectively. Besides, the Kd was found to be 4.1 nM in assay [2] and 2.2 nM in assay [3].

B2: Antibody 601-66 (antibody, V domains shown)
VH: QVQLVQSGAEVKEPGASVKVSCKASGYTFRNSGITWVRQAPGQGLEWMGWINPNSGGAMYVDNFQGRATMTRDTSINTAYMELRSLSSDDTAVYYCARGMADLIDVFDIWGQGTLVTVSS
VL: TQPALTQPASVSGSPGQSITISCTGTSSDFGDYDYVSWYQQHPGKAPKLMIYDVSDRPSGVSNRFSGSKSGNTASLTISGLQAEDEADYFCSSFTTSSTLVFGGGTKLTVL
In assay [1], B2 had a koff of 0.0051 s⁻¹ and a kon of 3.1e+06 M⁻¹ s⁻¹. In assay [2], this molecule had a Kd of 2.4 nM, a koff of 0.0059 s⁻¹ and a kon of 2.5e+06 M⁻¹ s⁻¹. Also, the Kd in assay [3] came to 1.7 nM.

B3: Antibody 601-70 (antibody, V domains shown)
VH: EVQLVQSGAELKKPGSSVRVSCKTSGGSFKTHGISWVRQAPGQGLEWMGWINPNSGGALYVDNFQGRATMTRDTSINTAYMELRSLSSDDTAVYYCARGMADLIDVFDIWGQGTMVTVSS
VL: TQPALTQPASVSGSPGQSITISCTGTSSDFGDYDYVSWYQQHPGKAPKLMIYDVSDRPSGVSNRFSGSKSGNTASLTISGLQAEDEADYFCSSFTTSSTLVFGGGTKLTVL
For the molecule B3, in assay [1], the koff worked out at 0.018 s⁻¹ and the kon was found to be 5.1e+06 M⁻¹ s⁻¹. In assay [2], this molecule registered a Kd of 5.4 nM, a koff of 0.019 s⁻¹ and a kon of 3.6e+06 M⁻¹ s⁻¹. In addition, in assay [3], the Kd turned out to be 3.5 nM.

B4: Antibody 601-65 (antibody, V domains shown)
VH: QVQLQQSGPGLVKPSQTLSLTCAISGDSVSSNSATWNWIRQSPSRGLEWLGRTYYRSKWYNDYAVSVKSRIIINPDTSKNQFSLQLNSVTPEDTAVYYCARGVRAFDIWGQGTTVTVSS
VL: QSVLTQPPSVSGTPGQRVTIFCSGGSNNIGRSSVYWYRQAAGTAPKLLIYKTDQRPSGVPDRFAASKSGASASLAISGLRSEDEADYHCATWDDSLSAVVFGGGTKLTVL
In assay [1], B4 displayed a koff of 0.0072 s⁻¹ and a kon of 1.1e+06 M⁻¹ s⁻¹. In assay [2], this molecule had a Kd of 6.6 nM, a koff of 0.011 s⁻¹ and a kon of 1.7e+06 M⁻¹ s⁻¹. Moreover, the Kd in assay [3] worked out at 6.4 nM.

B5: Antibody 601-4 (antibody, V domains shown)
VH: EVQLVQSGPGLVKPSGTLSLTCAVSGGSISSSNWWSWVRQPPGKGLEWIGEIYHSGSTNYNPSLKSRVTISVDKSKNQFSLKLGSVTAADTATYYCARDLWLGEWDLWGQGTLVTVSS
VL: QSVLTQPPSASGAPGQRVTISCSGGISNVGTNGVNWYQHLPGTAPKLLVDAMNQRPSGVPDRFSGSRSGTSGSLAITGLRSEDEADYYCATWDDSLSGVLFGGGTKLTVLG
Take B5: the values for the off-rate constant (koff) in assay [1] and in assay [2] were 0.00076 s⁻¹ and 0.0016 s⁻¹, respectively. In addition, the on-rate constant (kon) in assay [1] was found to be 3.6e+06 M⁻¹ s⁻¹; in assay [2], 4.6e+06 M⁻¹ s⁻¹. Also, the Kd in assay [2] stood at 0.3 nM; in assay [3], 0.2 nM.

B6: Antibody 601-149 (antibody, V domains shown)
VH: EAQLVESGGGLVKPGGSLRLSCAASGFTFSDYYMGWVRQAPGKGLKWLSYISDRAHTIYDTDSVKGRFTISRDDAKSSLYLRMNNLRVEDTAVYYCARAVGAGEGFDYWGQGTLVTVSS
VL: DIQLTQSPSSLSASVGDRVTITCQASQDVRNYLNWYQQKPGKAPNLLIYDATNLESGVPSRFSGSGSGTDFTFTISSLQPEDFATYYCQQYDNLPLSFGGGTKVEIK
On to B6, for which the koff in assay [1] amounted to 0.00023 s⁻¹; in assay [2], 0.00069 s⁻¹. In addition, the figures for the kon in assay [1] and in assay [2] were 1.9e+06 M⁻¹ s⁻¹ and 1.6e+06 M⁻¹ s⁻¹, respectively. Also, the Kd was found to be 0.4 nM in assay [2] and 0.1 nM in assay [3].

B7: Antibody 601-28 (antibody, V domains shown)
VH: EVQLVQSGGDLVQPGGSLRLSCAASGFTFSSYSMNWVRQAPGKGLEWVSSISSSSSYIYYADSVKGRFTISRDNAKNSLYLQMNSLRAEDTAVYYCARGLGGWTHDAFDIWGQGTTVTVSS
VL: QSALTQPASVSGSPGQSITISCTGTSSDVGGYNYVSWYQQHPGKAPKLMIFDVSNRPSGVSNRFSGSKSGNTASLTISGLQAEDEADYYCSSYTSSSTLFGGGTKLTVL
In assay [1], B7 returned a koff of 0.0097 s⁻¹ and a kon of 340000 M⁻¹ s⁻¹. Also, in assay [2], the Kd worked out at 36.4 nM, the koff is 0.012 s⁻¹ and the kon turned out to be 320000 M⁻¹ s⁻¹. Moreover, the Kd in assay [3] was 28.5 nM.

B8: Antibody 601-119 (antibody, V domains shown)
VH: QVQLVQSGGGLVKPGGSLRLSCAASGFTFGTYSMNWVRQAPGKGLEWVSSISSSSSYIYYADSVKGRFTISRDNAKNSLYLQMNSLRAEDTAVYYCARGLGGWTHDAFDIWGQGTTVTVSS
VL: QSALTQPASVSASPGQSITISCTGTSSDVGGYNYVTWYQQHPGKAPKLMIYDVSKRPSGVLDRFSGSKSGNTASLTISGLQAEDEADYFCSSYTSSSTLVFGGGTKLTVLG
As for B8, in assay [1], the koff is 0.079 s⁻¹ and the kon worked out at 440000 M⁻¹ s⁻¹. In assay [2], this molecule displayed a Kd of 407 nM, a koff of 0.095 s⁻¹ and a kon of 230000 M⁻¹ s⁻¹. The Kd in assay [3] was found to be 178 nM.

B9: Antibody 601-112 (antibody, V domains shown)
VH: EVQLVQSGGDLVQPGGSLRLSCAASGFTFSSYSMNWVRQAPGKGLEWVSSISSSSSYIYYADSVKGRFTISRDNAKNSLYLQMNSLRAEDTAVYYCARGLGGWTHDAFDIWGQGTTVTVSS
VL: QSALTQPASVSGSPGQSITISCTGTSSDVGGYNYVSWYQQHPGKAPKLMIYDVSKRPSGVSNRFSGSKSGNTASLTISGLQAEDEADYYCSSYTGRSTVFGGGTKLTVL
In the case of B9, in assay [1], the koff was found to be 0.00032 s⁻¹ and the kon is 340000 M⁻¹ s⁻¹. In assay [2], the Kd worked out at 4.6 nM, the koff stood at 0.0012 s⁻¹ and the kon worked out at 270000 M⁻¹ s⁻¹. In addition, the Kd in assay [3] is 1 nM.

B10: Antibody 601-37 (antibody, V domains shown)
VH: EVQLVQSGAEVKKPGASVKVSCKASGYTFNNYGFSWVRQAPGQGLEWMGWISVYNGNTNYAQKLQGRVTMTTDTSTSTAYMELRSLRSDDTAVYYCARDYYSDSSGYWDDAFDIWGQGTMVTVSS
VL: AIRMTQSPSSLSASVGDRVTITCQASQDISNYLNWYQQKPGKAPKLLIYAASSLQSGVPSRFSGSGSGTDFTLTISSLQPEDFATYYCQQSYSTPFTFGPGTKVDIK
B10: in assay [1], the koff is 0.0018 s⁻¹ and the on-rate (kon) was 1e+06 M⁻¹ s⁻¹. In addition, in assay [2], the Kd was found to be 3 nM, the koff came to 0.0027 s⁻¹ and the kon worked out at 920000 M⁻¹ s⁻¹. Further, the Kd in assay [3] is 1.7 nM.

B11: Antibody 601-141 (antibody, V domains shown)
VH: QVQLQQSGAEVKKPGASVKVSCKASGHTFSNYGISWVRQAPGQGLEWMGWISTYNGNTNYAQKLQGRVTMTTDTSTSTAYMELRSLRSDDTAVYYCARDYYSDSSGYWDDAFDIWGQGTTVTVSS
VL: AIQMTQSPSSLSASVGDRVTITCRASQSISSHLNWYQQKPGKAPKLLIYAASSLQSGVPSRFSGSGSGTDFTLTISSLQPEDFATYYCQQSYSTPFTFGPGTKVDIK
As for B11, the koff in assay [1] came out at 0.022 s⁻¹; in assay [2], 0.026 s⁻¹. The on-rate constant (kon) was 1.8e+06 M⁻¹ s⁻¹ in assay [1] and 1.2e+06 M⁻¹ s⁻¹ in assay [2]. Moreover, the Kd in assay [2] came out at 20.6 nM; in assay [3] it was 11.9 nM.

B12: Antibody 601-87 (antibody, V domains shown)
VH: QVQLQESGPGLVKSSETLSLTCTVSGGSMNNYYWSWIRQPAGKGLEWMGRIYSSGSTNYNPALKSRVTMSVDTSKNQFSLNLSSVTAADTAIYYCARASWSGTYWALFDYWGQGTLVTVSS
VL: ETTLTQSPAFMSATPGDKVNISCKASQDIDDDLNWYQQKPGEAPILIIQEATTLVPGIPPRFSGSGFGTDFTLTINSMQSEDVAYYFCLQHDNFPPTFGQGTKVEIK
B12: in assay [1], the koff amounted to 0.00058 s⁻¹ and the kon was found to be 760000 M⁻¹ s⁻¹. In assay [2], this molecule had a Kd of 2.2 nM, a koff of 0.0013 s⁻¹ and a kon of 600000 M⁻¹ s⁻¹. The Kd in assay [3] was found to be 0.8 nM.

B13: Antibody 601-147 (antibody, V domains shown)
VH: QMQLVQSGAEVKKPGASVKVSCKASGYTFSRYYIHWVRQAPGQGLEWMGLINPGGGSTNYAQKFQGRVTMTRDTSTNTVYLELSSLRSDDTAVYYCARDYGTIDARRFDFWGQGTLVTVSS
VL: QSALTQPPSASGTPGQRVTISCSGSSSNIGSNYVYWYQQLPGTAPKLLIYRNNQRPSGVPDRFSGSKSGTSASLAISGLRSEDEADYYCAAWDDSLSGYVFGTGTKVTVL
As for B13, in assay [1], the koff came to 0.00063 s⁻¹ and the kon is 680000 M⁻¹ s⁻¹. In assay [2], this molecule registered a Kd of 2.8 nM, an off-rate constant (koff) of 0.0017 s⁻¹ and an on-rate constant (kon) of 590000 M⁻¹ s⁻¹. For the same molecule, the Kd in assay [3] worked out at 0.9 nM.

B14: Antibody 601-50 (antibody, V domains shown)
VH: QVQLQQSGAEVKKPGASVKVSCKASGYTFSRYYIHWVRRAPGQGLEWMGLINPGGGSTNYAQKFQGRVTMTRDTSTNTVYLELSSLRSDDTAVYYCARDYGTIDARRFDFWGQGTLVTVSS
VL: QSALTQPPSASGTPGQRVTISCPGSSSNIGSNYVYWYQQLPGTAPKLLIYRNNQRPSGVPDRFSGSKSGTSATLGITGLQTGDEADYYCGTWDSSLSAYVFGTGTKVTVL
For the molecule B14, the koff in assay [1] was found to be 0.0011 s⁻¹; in assay [2], 0.0016 s⁻¹. The kon in assay [1] was found to be 940000 M⁻¹ s⁻¹; in assay [2] it was 1.1e+06 M⁻¹ s⁻¹. Moreover, the Kd turned out to be 1.5 nM in assay [2] and 1.1 nM in assay [3].

(Values after US20180009892A1 (EUREKA THERAPEUTICS, published 2018).)
